PMC5145889, “Differential CCR7 Targeting in Dendritic Cells by Three Naturally Occurring CC-Chemokines” (Frontiers in Immunology, 2016)
Numbering of substitutions follows the chain as printed.

Assays:
[1] = target: human CCR7, wild type, untagged (human) (UniProt P32248)
CCR7 Y312A (human) = CCR7 Y312A (human) (UniProt P32248)
[2] = target: human CCR7, wild type, untagged (human) (UniProt P32248); remark: listed apart in the source
[3] = target: human CCR7, wild type, untagged (human) (UniProt P32248); remark: listed apart in the source
[4] = target: CCR7 fused with the ProLink (PK) 1-tag (human) (UniProt P32248)
CCR7 K137A = target: T1, CCR7 K137A (human, UniProt P32248 25-378, K137A); experiment: cell-based or functional assay
T1 sequence (looked up): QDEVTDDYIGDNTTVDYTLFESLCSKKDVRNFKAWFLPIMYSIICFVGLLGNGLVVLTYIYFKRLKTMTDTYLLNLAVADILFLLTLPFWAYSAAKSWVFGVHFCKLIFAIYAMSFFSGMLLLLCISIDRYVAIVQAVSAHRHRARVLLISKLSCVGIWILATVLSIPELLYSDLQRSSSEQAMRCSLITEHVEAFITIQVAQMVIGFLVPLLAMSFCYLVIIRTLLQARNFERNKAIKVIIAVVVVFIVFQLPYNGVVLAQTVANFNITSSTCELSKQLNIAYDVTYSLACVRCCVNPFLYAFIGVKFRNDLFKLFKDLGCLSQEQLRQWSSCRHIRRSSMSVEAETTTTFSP

CCR7 E193A = target: T2, CCR7 E193A (human, UniProt P32248 25-378, E193A); experiment: cell-based or functional assay
T2 sequence (looked up): T1 sequence (looked up) with A113K, E169A

[5] = target: T3, human CCR7, wild type, untagged (human, UniProt P32248 25-378); experiment: cell-based or functional assay
T3 sequence (looked up): T1 sequence (looked up) with A113K

CCR7 F133A = target: T4, CCR7 F133A (human, UniProt P32248 25-378, F133A); experiment: cell-based or functional assay
T4 sequence (looked up): T1 sequence (looked up) with F109A, A113K

[6] = target: T3, human CCR7, wild type, untagged; experiment: cell-based or functional assay; remark: listed apart in the source
CCR7 Y312A = target: T5, CCR7 Y312A (human, UniProt P32248 25-378, Y312A); experiment: cell-based or functional assay
T5 sequence (looked up): T1 sequence (looked up) with A113K, Y288A

[7] = target: T6, CCR7 fused with the ProLink (PK) 1-tag (human, UniProt P32248 25-378); experiment: cell-based or functional assay
T6 sequence (looked up): T1 sequence (looked up) with A113K

human chemokine CCL19 (from UniProt Q99731 22-98) (ligand)
EC50 of PI-turnover in HEK293 cells (mutagenesis series, wild type) [1]: 5.4 nM
EC50 of PI-turnover in HEK293 cells (CCR7 Y312A (human)): 7.8 nM
EC50 of PI-turnover (Gαi signalling read through Gqi4myr) in HEK293 cells transfected with CCR7 [2]: 5 nM
EC50 of β-arrestin 2-dependent CCR7 internalization (U2OS cells, 3 h) [3]: 4.1 nM
EC50 of β-arrestin 2 recruitment to CCR7 (PathHunter, U2OS cells) [4]: 15 nM

B1: tailless-CCL21 (ligand, human)
chain: SDGGAQDCCLKYSQRKIPAKVVRSYRKQEPSLGCSIPAILFLPRKRSQAELCADPKELWVQQLMQHLDKTPSPQKPAQG
percentage activation of CCR7 (G-protein signaling) relative to CCL19 (CCR7 K137A): 16.7 % relative to CCL19
percentage activation of CCR7 (G-protein signaling) relative to CCL19 (CCR7 E193A): 17.5 % relative to CCL19
percentage activation of CCR7 (G-protein signaling) relative to CCL19 [5]: 42.7 % relative to CCL19
percentage activation of CCR7 (G-protein signaling) relative to CCL19 (CCR7 F133A): 27.1 % relative to CCL19
EC50 of PI-turnover (Gαi signalling read through Gqi4myr) in HEK293 cells transfected with CCR7 [6]: ~142 nM

B2: human chemokine CCL21 (full-length CCL21) (ligand, UniProt O00585 24-134, looked up)
chain: SDGGAQDCCLKYSQRKIPAKVVRSYRKQEPSLGCSIPAILFLPRKRSQAELCADPKELWVQQLMQHLDKTPSPQKPAQGCRKDRGASKTGKKGKGSKGCKRTERSQTPKGP
percentage activation of CCR7 (G-protein signaling) relative to CCL19 (CCR7 K137A): 16 % relative to CCL19
percentage activation of CCR7 (G-protein signaling) relative to CCL19 (CCR7 E193A): 19.3 % relative to CCL19
percentage activation of CCR7 (G-protein signaling) relative to CCL19 [5]: 57 % relative to CCL19
percentage activation of CCR7 (G-protein signaling) relative to CCL19 (CCR7 F133A): 28.7 % relative to CCL19
EC50 of PI-turnover in HEK293 cells (CCR7 Y312A): ~77 nM
EC50 of β-arrestin 2 recruitment to CCR7 (PathHunter, U2OS cells) [7]: ~263 nM
EC50 of PI-turnover (Gαi signalling read through Gqi4myr) in HEK293 cells transfected with CCR7 [6]: ~50 nM
EC50 of PI-turnover in HEK293 cells (mutagenesis series, wild type) [6]: ~156 nM
EC50 of β-arrestin 2-dependent CCR7 internalization (U2OS cells, 3 h) [6]: ~152 nM
